Consider five substances from patent US20240092835A1, “NOVEL PEPTIDES CAPABLE OF ALTERING NK CELL ACTIVITY” (Massachusetts Institute of Technology, priority 2022, published 2024).

One assay deals with CD94/NKG2A (UniProt Q13241). Nature of the assay: SPR steady state, Biacore T200, pMHC single chain trimer immobilized, CD94/NKG2A analyte.
In the next assay the target is CD94/NKG2C (UniProt Q13241). The assay can be described thus: SPR steady state, Biacore T200, pMHC single chain trimer immobilized, CD94/NKG2C analyte.

With “PISD55-63 peptide-HLA-E complex (single chain trimer) (from UniProt P61769 21-119; P13747 22-297) (peptide-MHC)”, the Kd was 12.1 µM in the assay with CD94/NKG2A and 16 µM with CD94/NKG2C.

Take “AKAP6388-396 peptide-HLA-E complex (single chain trimer) (from UniProt P61769 21-119; P13747 22-297) (peptide-MHC)”: the Kd with CD94/NKG2A came out at 4.1 µM; in the assay with CD94/NKG2C, 15.6 µM.

Consider “GTF3C5293-301 peptide-HLA-E complex (single chain trimer) (from UniProt P61769 21-119; P13747 22-297) (peptide-MHC)”, for which the figures for the Kd with CD94/NKG2A and in the assay with CD94/NKG2C were 28.1 µM and 92.4 µM, respectively.

For “CREB3L1419-427 peptide-HLA-E complex (single chain trimer) (from UniProt P61769 21-119; P13747 22-297) (peptide-MHC)”, the Kd was found to be 3.3 µM in the assay with CD94/NKG2A and 9.8 µM in the assay with CD94/NKG2C.

“BFAR263-271 peptide-HLA-E complex (single chain trimer) (from UniProt P61769 21-119; P13747 22-297) (peptide-MHC)”: the Kd amounted to 0.8 µM with CD94/NKG2A and 1.8 µM with CD94/NKG2C.
